Test in all cases: SPR, Biacore T200, antibody captured on Protein A chip, 3-fold analyte series 0-100 nM, 37 C, 1:1 model; average ± as printed
(In general: In SPR one partner is held on a chip, and binding of the other changes the refractive index at the surface.)

For test [1], the target named is T1, recombinant mouse αvβ8 protein (PARS-17103) (murine, UniProt P43406 31-988; Q0VBD0 43-681, limits assumed).
T1 construct: Made in house; also called mu.aVb8.17103
The procedure: (§1) The ability of the anti-αVP8-65 to bind to different αVβ8 proteins was assessed using SPR measurements (Karlsson et al. 1991) on a Biacore™ T200 (Cytiva Life Sciences; Marlborough, MA) instrument (Safsten et al. 2006). anti-αV08-65 was first captured on a Biacore™ Protein A biosensor chip (Cytiva Life Sciences) to achieve approximately 60 response units. Binding measurements were performed using a running buffer composed of 10 mM HEPES (pH 7.4), 150 mM NaCl, 0.5 mM CaCl₂), 0.5 mM MgCl₂, and 0.005% Surfactant P20 (Cytiva Life Sciences). A 3-fold dilution series of the analyte proteins (range, 0-100 nM in running buffer) was injected into the Biacore™ T200. All injections were performed over 180 seconds, with a dissociation time of 1200 seconds, at a flow rate of 100 μL/minute and a temperature of 37° C. Between sample injections, 10 mM glycine (pH 1.5) was injected to regenerate the sensor chip (twice, over 30 seconds at 10 μL/minute for each injection). To determine the binding kinetics and affinity constants of anti-αVP8-65 to the various species of the αVβ8 protein, the signal from the reference flow cell (FC1, with only protein A on the surface) was “double referenced” by subtracting the signal observed after injecting the sample over FC1, followed by subtracting the signal observed after injecting only running buffer. The kinetic constants were calculated using non-linear regression fitting of the data, according to a 1:1 Langmuir binding model, using Biacore™ Evaluation Software (Cytiva Life Sciences) for anti-αVP8-65 binding to recombinant human, cynomolgus monkey, mouse, and rat αVβ8 proteins.

The target in test [2] is T2, recombinant human αvβ8 protein (PARS-17102) (human).
T2 construct: also called hu.aVb8.17102; not shown: C-terminal acid/basic coils and any purification tags
T2 alpha: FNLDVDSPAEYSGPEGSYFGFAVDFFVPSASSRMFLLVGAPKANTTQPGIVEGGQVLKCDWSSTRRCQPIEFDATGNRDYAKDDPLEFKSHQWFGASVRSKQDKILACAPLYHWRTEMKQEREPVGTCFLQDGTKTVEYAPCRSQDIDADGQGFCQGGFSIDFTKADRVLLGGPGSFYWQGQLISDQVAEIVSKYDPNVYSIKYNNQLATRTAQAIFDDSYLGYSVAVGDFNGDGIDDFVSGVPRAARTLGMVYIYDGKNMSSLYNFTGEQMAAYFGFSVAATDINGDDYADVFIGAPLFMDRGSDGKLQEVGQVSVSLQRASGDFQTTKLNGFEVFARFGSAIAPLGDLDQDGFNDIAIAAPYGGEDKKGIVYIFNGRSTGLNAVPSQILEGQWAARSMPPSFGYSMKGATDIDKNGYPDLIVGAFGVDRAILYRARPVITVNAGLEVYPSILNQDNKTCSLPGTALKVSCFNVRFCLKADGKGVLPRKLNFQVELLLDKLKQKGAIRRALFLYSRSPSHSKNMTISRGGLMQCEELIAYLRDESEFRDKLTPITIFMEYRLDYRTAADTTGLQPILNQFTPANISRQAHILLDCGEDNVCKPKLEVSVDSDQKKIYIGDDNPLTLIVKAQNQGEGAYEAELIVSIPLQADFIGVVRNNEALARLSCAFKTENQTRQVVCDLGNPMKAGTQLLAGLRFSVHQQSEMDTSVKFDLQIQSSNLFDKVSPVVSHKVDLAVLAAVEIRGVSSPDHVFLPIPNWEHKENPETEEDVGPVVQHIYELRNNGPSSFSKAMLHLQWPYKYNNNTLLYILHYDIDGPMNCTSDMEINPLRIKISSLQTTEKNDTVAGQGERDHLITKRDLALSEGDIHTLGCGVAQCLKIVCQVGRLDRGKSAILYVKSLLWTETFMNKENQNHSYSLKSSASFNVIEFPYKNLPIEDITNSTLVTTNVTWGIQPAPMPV
T2 beta: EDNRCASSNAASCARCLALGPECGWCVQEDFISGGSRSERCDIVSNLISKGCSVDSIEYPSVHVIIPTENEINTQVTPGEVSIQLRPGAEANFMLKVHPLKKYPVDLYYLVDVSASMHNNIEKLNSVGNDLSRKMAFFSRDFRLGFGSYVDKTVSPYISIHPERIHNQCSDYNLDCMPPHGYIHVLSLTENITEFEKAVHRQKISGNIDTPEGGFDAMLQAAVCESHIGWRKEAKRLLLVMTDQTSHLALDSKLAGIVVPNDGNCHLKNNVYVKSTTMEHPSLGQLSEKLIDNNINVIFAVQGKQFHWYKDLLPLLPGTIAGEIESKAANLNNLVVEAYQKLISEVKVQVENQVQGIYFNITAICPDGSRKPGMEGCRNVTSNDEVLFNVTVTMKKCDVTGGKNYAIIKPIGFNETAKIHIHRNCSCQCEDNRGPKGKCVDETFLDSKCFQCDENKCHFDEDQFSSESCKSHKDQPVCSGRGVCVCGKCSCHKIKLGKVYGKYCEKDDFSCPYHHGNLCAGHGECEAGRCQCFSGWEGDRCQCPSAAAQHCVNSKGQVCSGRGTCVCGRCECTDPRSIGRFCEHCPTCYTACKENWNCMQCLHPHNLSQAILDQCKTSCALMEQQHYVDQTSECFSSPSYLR
As to the method: as §1

The target of test [3] is T3, recombinant rat αvβ8 protein (PARS-22180) (rat, UniProt F1LZX9 31-987; A0A0G2JVU1 43-682).
T3 construct: also called rat.aVb8
As to the method: as §1

The target of test [4] is T4, recombinant cynomolgus monkey αvβ8 protein (PARS-19393) (cynomolgus monkey, UniProt A0A2K5WCD3 31-992; G7P0S0 43-684).
T4 construct: also called cyno.aVb8-19393; cyno.aVb8
As to the method: as §1

In patent US20240327522A1 (Genentech, published 2024) one finds Kd, koff and kon data, which are given here for one molecule.

In general, Kd refers to the equilibrium constant for the complex coming apart. Broadly, the koff is a measure of how fast the partners let go of each other. What is called kon is the second-order rate constant of association.

T1 sequence (P43406 31-988 limits assumed, chain 1 of 2): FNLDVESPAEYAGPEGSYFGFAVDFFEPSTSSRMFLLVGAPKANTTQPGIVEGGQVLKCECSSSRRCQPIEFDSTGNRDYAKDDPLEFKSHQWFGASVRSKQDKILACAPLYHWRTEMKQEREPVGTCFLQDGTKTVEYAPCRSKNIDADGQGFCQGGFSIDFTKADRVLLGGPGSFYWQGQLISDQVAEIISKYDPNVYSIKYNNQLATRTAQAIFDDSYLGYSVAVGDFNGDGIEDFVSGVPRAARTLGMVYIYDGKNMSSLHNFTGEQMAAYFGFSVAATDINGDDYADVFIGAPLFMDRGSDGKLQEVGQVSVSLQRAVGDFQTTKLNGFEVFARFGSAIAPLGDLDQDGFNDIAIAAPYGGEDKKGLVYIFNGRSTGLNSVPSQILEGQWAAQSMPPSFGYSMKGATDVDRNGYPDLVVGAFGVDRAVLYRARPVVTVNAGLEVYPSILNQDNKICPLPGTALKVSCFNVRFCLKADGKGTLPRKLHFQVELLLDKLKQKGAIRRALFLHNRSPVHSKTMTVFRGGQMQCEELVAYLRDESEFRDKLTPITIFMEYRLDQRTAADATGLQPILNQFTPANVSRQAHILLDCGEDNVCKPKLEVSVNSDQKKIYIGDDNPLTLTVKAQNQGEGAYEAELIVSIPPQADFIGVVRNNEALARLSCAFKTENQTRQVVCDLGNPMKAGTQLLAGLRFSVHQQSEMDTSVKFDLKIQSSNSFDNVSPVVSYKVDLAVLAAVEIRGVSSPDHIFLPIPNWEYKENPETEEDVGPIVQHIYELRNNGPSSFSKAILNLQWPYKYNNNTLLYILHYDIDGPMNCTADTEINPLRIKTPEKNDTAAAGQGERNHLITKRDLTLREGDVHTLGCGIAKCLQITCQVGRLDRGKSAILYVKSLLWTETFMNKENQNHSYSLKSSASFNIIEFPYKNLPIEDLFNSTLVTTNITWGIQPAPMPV
T1 sequence (Q0VBD0 43-681 limits assumed, chain 2 of 2): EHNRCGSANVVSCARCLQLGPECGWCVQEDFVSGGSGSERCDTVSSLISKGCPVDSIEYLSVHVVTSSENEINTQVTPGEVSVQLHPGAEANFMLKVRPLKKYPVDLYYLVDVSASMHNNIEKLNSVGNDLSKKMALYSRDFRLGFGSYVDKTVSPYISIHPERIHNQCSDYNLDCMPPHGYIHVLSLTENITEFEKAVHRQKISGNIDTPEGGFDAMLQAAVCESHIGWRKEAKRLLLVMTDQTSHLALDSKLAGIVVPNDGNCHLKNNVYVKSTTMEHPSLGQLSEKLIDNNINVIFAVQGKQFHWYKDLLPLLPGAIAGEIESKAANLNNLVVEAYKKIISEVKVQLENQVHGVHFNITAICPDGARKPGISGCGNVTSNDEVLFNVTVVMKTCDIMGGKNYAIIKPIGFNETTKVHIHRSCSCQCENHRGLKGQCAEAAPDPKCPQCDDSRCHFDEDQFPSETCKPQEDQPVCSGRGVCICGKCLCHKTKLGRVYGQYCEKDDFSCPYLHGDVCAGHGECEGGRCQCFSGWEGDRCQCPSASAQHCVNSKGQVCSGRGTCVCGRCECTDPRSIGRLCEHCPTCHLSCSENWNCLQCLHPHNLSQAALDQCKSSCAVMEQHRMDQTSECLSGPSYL

B1: Hu.aVb8-65.H15L2 (aVb8-65.H15L2.hIgG1.LALAPG) (antibody, V domains shown)
VH: EVQLLESGGGLVQPGGSLRLSCAASGIDLSNYAMIWVRQAPGKGLEWVGIISSSDRIWYASWVKGRFTISRDNSKNTLYLQMNSLRAEDTAVYYCSRSVSNSYFDGWNLWGQGTLVTVSS
VL: DIQMTQSPSSVSASVGDRVTITCQASENINSLLAWYQQKPGKAPKLLIYRASTLASGVPSRFSGSGSGTDFTLTISSLQPEDFATYYCQSNYGFTGSGAFFYGFGQGTKVEIKR
notes: Human IgG1 LALAPG; also called PARS-20475-65 (IH) aVb8-65.H15L2.hIgG1.LALAPG; humanized αvβ8-65
As to B1, the Kd in test [1] was found to be 0.94 nM; in test [2] it was 0.5 nM; in test [3], 1 nM; in test [4], 0.7 nM. The koff came out at 0.000108 s⁻¹ in test [1], 8.8e-05 s⁻¹ in test [2], 0.00011 s⁻¹ in test [3] and 0.00013 s⁻¹ in test [4]. In addition, the kon in test [1] worked out at 140000 M⁻¹ s⁻¹; in test [2], 175000 M⁻¹ s⁻¹; in test [3], 104000 M⁻¹ s⁻¹; in test [4], 180000 M⁻¹ s⁻¹.
